In patent publication US12611443B2, “Methods and compositions related to therapeutic peptides for cancer therapy” (THE UNIVERSITY OF CHICAGO, priority 2018, dated 2026):
Entries after “also recorded” stand apart in the source; their conditions may differ.

Legend:
[1] = tested on: human/murine cancer cells; assay: In vitro cell viability of cancer cells (calcein-AM, CASP3, ANXA5); type: cell-based; conditions: for effect of ELANE inhibitor treatment of ELANE or PMN media on cancer cell killing: PMSF 1 mM or A1AT 42 nM
Text: Cell lines. The ovarian cancer cell lines—CAOV3, OVCAR3, OVCAR4, OVCAR5, A2780, A2780/CP70, HeyA8, TykNu, SKOV3, ID8, and ID8p53-/- were a gift from Dr. Ernst Lengyel, University of Chicago. The breast cancer cell lines—MDA-MB-231, MDA-MB-231.BM1, MCF-7, M6C, E0771, and E0771.LMB were a gift from Dr. Marsha Rosner, University of Chicago. The colon carcinoma cell line RKO, glioblastoma cancer cell line T98G, osteosarcoma cell lines U-2OS and Saos-2, and the hepatocellular carcinoma cell line HepG2 were a gift from Dr. Kay McLeod, University of Chicago. The lung cancer cell line NCI-H552 was a gift from Dr. Stephanie Huang, University of Chicago, and A549 and LLC1 cells were purchased from ATTC. The melanoma cell lines—B16F10, Mel888, Mel1106, and SK-MEL-28 cells were a gift from Dr. Thomas Gajewski, University of Chicago. The pancreatic cancer cell line PANC1 was a gift from Dr. Yamuna Krishnan, University of Chicago. The leukemia cell line K562 was a gift from Dr. Amittha Wickrema, University of Chicago.
The prostate cancer cell lines—CWR22Rv1, LAPC4, and LNCaP were a gift from Dr. Donald Vander Griend, University of Chicago. The neuroblastoma cell lines—SK-N-BE(2) and NBL-WN cells were a gift from Dr. Lucy Godley, University of Chicago.
Neutrophil media collections. Freshly isolated human or murine neutrophils were plated in serum-free DMEM for 24 h. Conditioned media was collected, spun at 500×g for 5 min, and media protein levels were determined with a Bradford assay (Biorad).
PMN media manipulations. For boiling, PMN media was boiled at 95° C. for 5 min and spun at 15,000×g for 10 min to remove precipitated proteins. For dialysis, PMN media was placed into a Slide-a-Lyzer™ cassette (3.5 kDa cutoff, ThermoFisher Scientific) and dialyzed against 2×4L of PBS at 4° C. for 4 h. For PMSF-inactivation, PMN media was treated with PMSF (1 mM, Sigma) or A1AT (42 nM, Athens Research & Technology) and incubated at room temperature for up to 2 h. Residual PMSF was eliminated with a PD-10 desalting column (GE Healthcare Life). Inhibition of ELANE catalytic activity was confirmed using a chromogenic substrate activity assay (see below). For serum-spiking experiments, human, mouse, or fetal bovine serum (1% or 10%) was added to PMN media prior to or after exposing cancer cells. For immune-depletion studies, ELANE or ECP were immunoprecipitated using anti-ELANE (N2C3, GeneTx) or anti-ECP (MB S2535165, MyBioSource) coupled to Pierce™ Protein A/G Magnetic Beads (ThermoFisher Scientific).
(§1) In vitro cell viability assays. […] Luminescence was measured using a Victor X3 luminometer (PerkinElmer).

[2] = tested on: cancer cells; assay: CD95 protein overexpression in cancer cells, viability in absence of ELANE (calcein-AM); type: cell-based, human; conditions: transient overexpression
Procedure: FIGS. 1A-1K. ELANE cleaves CD95 to selectively kill cancer cells. (A): Heatmap summary of ELANE's effects on survival, stress, and apoptosis pathways in cancer cells and healthy cells. (B-C): Cancer cells were treated with ELANE (100 nM) and CD95 cleavage was assessed by western blotting using anti-N-terminal (B) or anti-C-terminal antibodies (C). *, lower molecular weight CD95 fragment. (D): Cancer cells or non-cancer cells were transduced to overexpress CD95 proteins, and effects on ELANE-mediated apoptosis were quantified by ANXAS at 30 min. n=2/group. See FIG. 1I for transduction and CD95 over-expression. (E): Cleavage of recombinant human CD95 N-terminal (aa 1-173) or C-terminal (aa 212-335) proteins by ELANE was assessed by SDS-PAGE and Coomassie blue staining. (F): Bands from (E) were digested with trypsin and analyzed by mass spectrometry to identify putative ELANE cleavage sites (i.e., peptides with non-tryptic ends). Major non-tryptic peptides were quantified by ion chromatograms. (G): Schematic of ELANE cleavage sites in CD95. […] (H): Cleavage of recombinant peptides corresponding to aa 214-231 and aa 317-335 in CD95 by ELANE was monitored by mass spectrometry. (I): Cancer cells or non-cancer cells were treated with fluorescein-labeled ELANE for 10 min and uptake was visualized by immunofluorescence. (J): ELANE catalytic activity in cancer cell lysates following exposure to ELANE for 30 mins in the presence and absence of Dynasore (60 μM endocytosis inhibitor). Effect of Dynasore on cancer cell killing capability of ELANE (measured by calcein-AM). n=6/group. (K): Cancer cells or non-cancer cells were transduced to overexpress various CD95 proteins, and cell viability in the absence of ELANE was determined by calcein-AM. n=10/group. *, p<0.05 Student's t-test.
as §1
(§2) CD95 overexpression studies. Polycistronic adenoviral vectors were prepared to express the human and mouse CD95 sequences followed by the Encephalomyocarditis virus (EMCV) internal ribosome entry site and dTomato sequence under the control of the cytomegalovirus (CMV) promoter (VectorBuilder). Human and murine cancer cells or normal or non-cancer cells were transduced to over-express full-length CD95, N-terminal CD95 (human: aa 1-209; mouse: aa 1-204), C-terminal CD95 (human: aa 212-335; mouse: aa 204-327), or C-terminal CD95 that mimicked ELANE cleavage at site 1 (human: aa 221-335), site 2 (human: aa 212-331), or both sites (aa 221-331). Cancer cells or normal or non-cancer cells were transduced with adenoviruses at an MOI of 50-250 depending on cell type, and expression of dTomato and CD95 (human: 558814; mouse, mouse: 565130, BD Biosciences) were confirmed by flow cytometry. A vector encoding GFP (Vector Builders) was used as a control.

[3] = tested on: human and murine cancer cells; assay: CD95 overexpression, ELANE-mediated apoptosis (ANXA5); type: cell-based; conditions: ELANE 40 nM, ANXA5 at 30 min
Procedure: FIGS. 2A-2D Overexpressing CD95 proteins accelerates cancer cell killing by ELANE. Polycistronic adenoviral vectors were prepared to express the human and mouse CD95 sequences followed by the Encephalomyocarditis virus (EMCV) internal ribosome entry site and dTomato sequence under the control of the cytomegalovirus (CMV) promoter. Human and murine cancer cells or non-cancer cells were transduced to over-express full-length CD95, N-terminal CD95 (human: aa 1-209; mouse: aa 1-204), or C-terminal CD95 (human: aa 212-335; mouse: aa 204-327). (A): Transduction efficiency quantified by dTomato (Left). CD95 levels in dTomato− and dTomato+ cells quantified by geometric mean (MFI) (Middle). ANXA5 levels in dTomato− and dTomato+ cells 30 min after treatment with ELANE (40 nM) (Right). Representative data for A549 cells are shown. (B-C): Quantification of transduction efficiency (B) and relative CD95 overexpression (C) for cancer cells and non-cancer cells. (D): Quantification of ANXA5 levels following ELANE treatment (40 nM, 30 min) for mouse cancer cell lines (E0771, B16F10). *, p<0.05 Student's t-test.
as §1, §2

Molecule | cancer cell death/toxicity on expression in the absence of ELANE [2] | effect of overexpression on ELANE-mediated killing [3] | also measured
O=S(=O)(F)Cc1ccccc1 [PMSF] | – | – | effect of ELANE inhibitor treatment of ELANE or PMN media on cancer cell killing [1]: eliminated the ability of PMN media to kill cancer cells in vitro and in vivo; also recorded: protects cancer cells from apoptosis
A1AT: alpha-1-anti-trypsin, irreversible non-competitive ELANE inhibitor | – | – | effect of ELANE inhibitor treatment of ELANE or PMN media on cancer cell killing [1]: eliminated the ability of PMN media to kill cancer cells in vitro and in vivo; effect of ELANE inhibitor treatment of ELANE or PMN media on cancer cell killing ([1]; listed as alpha-1-antitrypsin): protects cancer cells from apoptosis
murine ELANE: recombinant mouse ELANE activated with CTSC (protein, UniProt Q3UP87 27-265, looked up) Neutrophil elastase: SEIVGGRPARPHAWPFMASLQRRGGHFCGATLIARNFVMSAAHCVNGLNFRSVQVVLGAHDLRRQERTRQTFSVQRIFENGFDPSQLLNDIVIIQLNGSATINANVQVAQLPAQGQGVGDRTPCLAMGWGRLGTNRPSPSVLQELNVTVVTNMCRRRVNVCTLVPRRQAGICFGDSGGPLVCNNLVQGIDSFIRGGCGSGLYPDAFAPVAEFADWINSIIRSHNDHLLTHPKDREGRTN | – | – | cancer cell killing by murine ELANE [1]: kills cancer cells
N-terminal domain peptide of CD95: N-terminal domain of human CD95, aa 1-209 (protein, listed as Homo sapiens) MLGIWTLLPLVLTSVARLSSKSVNAQVTDINSKGLELRKTVTTVETQNLEGLHHDGQFCHKPCPPGERKARDCTVNGDEPDCVPCQEGKEYTDKAHFSSKCRRCRLCDEGHGLEVEINCTRTQNTKCRCKPNFFCNSTVCEHCDPCTKCEHGIIKECTLTSNTKCKEEGSRSNLGWLCLLLLPIPLIVWVKRKEVQKTCRKHRKENQGS | not toxic to cancer cells | had no effect | –
full-length CD95: full length human CD95 (aa 1-335), isoform 1 (protein, listed as Homo sapiens) MLGIWTLLPLVLTSVARLSSKSVNAQVTDINSKGLELRKTVTTVETQNLEGLHHDGQFCHKPCPPGERKARDCTVNGDEPDCVPCQEGKEYTDKAHFSSKCRRCRLCDEGHGLEVEINCTRTQNTKCRCKPNFFCNSTVCEHCDPCTKCEHGIIKECTLTSNTKCKEEGSRSNLGWLCLLLLPIPLIVWVKRKEVQKTCRKHRKENQGSHESPTLNPETVAINLSDVDLSKYITTIAGVMTLSQVKGFVRKNGVNEAKIDEIKNDNVQDTAEQKVQLLRNWHQLHGKKEAYDTLIKDLKKANLCTLAEKIQTIILKDITSDSENSNFRNEIQSLV | not toxic to cancer cells | accelerated ELANE-mediated killing in human cancer cells | effect of overexpression on ELANE-mediated killing ([3]; listed as human CD95 (hCD95)): did not protect against ELANE-mediated killing, but rather accelerated it
mouse CD95 (mCD95): mouse CD95 overexpressed in cancer cells (protein, UniProt P25446 22-327, looked up) Tumor necrosis factor …: QGTNSISESLKLRRRVRETDKNCSEGLYQGGPFCCQPCQPGKKKVEDCKMNGGTPTCAPCTEGKEYMDKNHYADKCRRCTLCDEEHGLEVETNCTLTQNTKCKCKPDFYCDSPGCEHCVRCASCEHGTLEPCTATSNTNCRKQSPRNRLWLLTILVLLIPLVFIYRKYRKRKCWKRRQDDPESRTSSRETIPMNASNLSLSKYIPRIAEDMTIQEAKKFARENNIKEGKIDEIMHDSIQDTAEQKVQLLLCWYQSHGKSDAYQDLIKGLKKAECRRTLDKFQDMVQKDLGKSTPDTGNENEGQCLE | – | did not protect against ELANE-mediated killing, but rather accelerated it | –
Cl: hCD95 C-terminal peptide aa 221-335, mimics ELANE cleavage at site 1 (protein) AINLSDVDLSKYITTIAGVMTLSQVKGFVRKNGVNEAKIDEIKNDNVQDTAEQKVQLLRNWHQLHGKKEAYDTLIKDLKKANLCTLAEKIQTIILKDITSDSENSNFRNEIQSLV | toxic | – | cancer cell death/toxicity on expression in the absence of ELANE ([2]; listed as aa. 221-335 of SEQ ID NO:1): induced cancer cell death in the absence of ELANE
C2: hCD95 C-terminal peptide aa 212-331, mimics ELANE cleavage at site 2 (protein) SPTLNPETVAINLSDVDLSKYITTIAGVMTLSQVKGFVRKNGVNEAKIDEIKNDNVQDTAEQKVQLLRNWHQLHGKKEAYDTLIKDLKKANLCTLAEKIQTIILKDITSDSENSNFRNEI | toxic | – | cancer cell death/toxicity on expression in the absence of ELANE ([2]; listed as aa. 212-331 of SEQ ID NO:1): induced cancer cell death in the absence of ELANE
